Laboratory results taken from the RNAGym collection of RNA variant scans (doi:10.1073/pnas.2313332121).
Variants at the floor of the assay were thinned out.

B1: TPR 5TU (parent)
chain: GGAUCUUCUCGAUCUAACAAAAAAGACAAAUCUGCCACAAAGCUUGAGAGCAUCUUCGGAUGCAGAGGCGGCAGCCUUCGGUGGCGCGAUAGCGCCAACGUUCUCAACUAUGACACGCAAAACGCGUGCUCCGUUGAAUGGAGUUUAUCAUG

Variants of: B1
Test: polymerase ribozyme fitness, log enrichment relative to wild type (log ratio); higher = more active; in vitro selection for triplet polymerase activity
Summary of the method: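 After PCR construction and transcription, each subunit's mutant library from a heterodimeric triplet polymerase ribozyme was annealed with a biotinylated primer, the partner subunit and triplets. Incubation was frozen, at −7 °C, and extended constructs were gel-excised, bound to streptavidin beads and amplified by RT-PCR, in one selection round done in triplicate. Fitness is the logarithm of a genotype's enrichment divided by that of the wild type, from inverse-variance-weighted replicate averages of Illumina-sequenced inputs and outputs. The base of the logarithm is 2, and genotypes needed ≥10 input reads and ≥1 read per output.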

GGAACUUCUCGAUCUACCAAAAAAGACAAAUCUGCCACAAAGCUUGAGAGCAUCUUCGCAUGCAGAGGCGGCAGCCUUCGGUGGCGCGAUAGCGCCAACGUUCUCAACUAUGACACGCGAAACGCGUGCUCCGUUGAAUGGAGUUUAUCAUG and GGAACUUCUCGUUCUAACAAAAAAGACAAAUCUGCCACAAAGCUUGAGAGCAUCUUCGGAUGCAGAGGCGGCAGCCUUCUUUGGCGCGAUACCGCCAACGUUCUCAACUAUGACACGCAAAACGCGUGCUCCGUUGAAUGGAGUUUAUCAUG are within 0.2 log units of each other in “polymerase ribozyme fitness (log ratio)” value: -0.404 for the first, -0.513 for the second.

First: GGAACUUCUCGAUCUACCAAAAAAGACAAAUCUGCCACAAAGCUUGAGAGCAUCUUCGGAUGCAGAGGCGGCAGCCUUCGGUGGCGCGAUAGCACCAACGUUCUCAACUAUGACACGCAAAACGCGUGCUCCGUUGAAUGGAGUUUAUUAUG
Second: GGUGCUUCUCGAUCUAACAAAAAAGACAAAUCUGCCACAAAGCUUGAGAGCAUCAUCGGAUGCAGAGGCGGCAGCCUUCGGUGGCGCGAUAGCGCCAACGUUCUCAACUAUGACACGCCAAACGCGUGCUCCGUUGAAUGGAGUUUAUCAUG
The “polymerase ribozyme fitness (log ratio)” value of the first is lower: -1.61 for the first, -1.29 for the second.

Going from GGUUCUUCUCGAUCUAACAAAAAAGACAAAUCUGCCACAAAGCUUGAGAGCAUCUUCGGAUGCAGAGGCGGCAGCCUUCGGUGGCGCGAUAGCGCCAACGUUCUCAACUAUGACACGCAAAACGCGUGCUCCGUUGAAUGGAGUCUAUCAUG to GGAACUUCUCGAUCUUACAAAAAAGACAAAUCUGCCACAAAGCUUGAGAGCAUCUUCGGAUGCAGAGGCGGCAGCCUUCGGUGGCGCGAUAGCGCCAACGUUCUCAACUAUGCCUCGCAAAACGCGUGCUCCGUUGAAUGGAGUUUAUCAUG, the “polymerase ribozyme fitness (log ratio)” value falls from -0.205 to at most -4.2.

Going from GGUUCUUCUCGAUCUAACAAAAAAGACAAAUCUGCCACAAAGCUUGAGAGCAUCUUCGGAUGCAGAGGCGGCAGCCUUCGGGGGCGCGAUAGCGCCAACGUUCGCAACUAUGACACGCAAAACGCGUGCUCCGUUGAAUGGAGUUUAUCAUG to GGUAUUUCUCGAUGUUACAAAAAAGACAACUCUGCCACAAAGCUUGAGAGCAUCUUCGGAUGCAGAGGCGGCAGCCUUCGGUUGCGCGAUAGCGCCAACAUUCUCAACUAUGACACGCAAAACGCGUGCUCCGUUGAAUGGAGUUUAUCAUG, the “polymerase ribozyme fitness (log ratio)” value falls from -1.04 to at most -4.2.

GGUUCUUCUCGAUCUAACAAAAAAGACAAAUCUGCCACAAAGCUUGAGAGCAACUUCGGAUGCAGAGGCGGCAGCCUUCGGCGGCGGGAUAGCGCUAACGUUCUCAACUAUGACACGCAAAACGGGUGCUCCGUUGAAUGGAGUUUAUCAUG and GGAACUUCUCGAUCUAGCAAAAAAGACAAAUCUGACACAAAGCUUGAGAGCAUCUUCGCAUGCAGAGGCGGCAGCCUUCGGUGGCGCGAUAGCGCCAACGUUCUCAACUAUGACACGCAAAACGCGUGCUCCGUAGAAUGGAGUUUAUCAUG cannot be ordered by “polymerase ribozyme fitness (log ratio)” value: at most -4.2 for the first, at most -4.2 for the second.

First: GGAACUUCUCGCUCUAACAAAAAAGACAAAUCUGCCACAAAGCUUGAGAGCAUCAUCGGAUGCAGAGGCGGCAGCCUUCGGUGUCGCGAUAGCGCCAACGUUCUCAACUAUGACACGCAAAACGCGUGCUCCGUUGAAUGGAGUUUAUCAUG
Second: GGUUCUUCUCGAUCUAACAAAAAAGACAAAUCUGCCACAAAGCUUGAGAGCAUCUUCGGAUGCAGAGGCGGCAGCCUUCGGUGGCGCAAUAGCGCCAACGUUCUCAACUGUGACACGCAAAACGCGUGCUCCGUUGAAUGGAGUUUAUCAUG
The “polymerase ribozyme fitness (log ratio)” value of the first is higher: -2.4 for the first, at most -4.2 for the second.

GGAACUUCUCGAUCUUGCAAUAAUGACAAAUCUGCCACAAAGCUUGAGAGCAUCUUCGGAUGCAGAGGCGGCAGCCUUCGGUGACGCGAUAGCGCCAACGUUCUCAACUAUGAUACGCAAAUCGCGUGCUCCGUUGAAUGGCGUUUAUCAUG and GGUUCUUCUCGAUCGAACAAAAAAGACAAAUCUGCCACAAAGCUUGAGAGAAUCUUCGGAUGCAGAGGCGGCAGCCUUCGGUGUCGCGAUAGCGCCAACGUUCUCAACUAUGACACGCAAAACGCGUGCUCCGUUGAAUGGAGUUUAUCAGG cannot be ordered by “polymerase ribozyme fitness (log ratio)” value: at most -4.2 for the first, at most -4.2 for the second.

Compared with GGUACUUCUCGAUCUUACAAAAAAGACAAAACUGCCACAAAGCUUGAGAGCAUCUUCGGAUGCAGAGGCGGCAGCCUUCGGUGGUGCAAUAGCGCCAACGUUCUCAACUAUGACACGCAAAACGUGUGCUCCGUUGAAUGGAGUUGAUCAUG, GGUUCUUCUCGAUCUAACAAAAAAGACAAAUCUGCCACAAAGCUUGAGAGCAUCUCCGGAUGCAGAGGCGGCAGCCUUCGGUGGCGUGGUAGCGCCAACGGUCUCAACUAUGACACGCAAAACGCGUGCUCCGUUGAAUGGAGUUUAUCAUG is higher in “polymerase ribozyme fitness (log ratio)” value: at most -4.2 for the first, -2.52 for the second.

Compared with GGUUCUUCUCGAUCUAACAAAAAAGACAAAUCUGCCACAAAGCUUGAGAGCAUCUUCGGAUGCAGAGGCGGCAGCCUUCGGUCGCGCGAUAGCGCCAACGUUCUCAACUAUGACACGCAAAACGCGUGCUCCGUUGAAUGGAGUUUAUCAUG, GGUUCUUCUCGAUCUAACAAAAAAGACAAAGCUGCUACAAAGCUUGAGAGCAUCUUCGGAUGCAGAGGCGGCAGCCUUCGGUGGCGCGAUAGCGCAAACGUUCUCAACUAUGACACGCAAAACGCGUGCUCCGUUGAAUGGAGUUUAUCAUG is lower in “polymerase ribozyme fitness (log ratio)” value: -0.632 for the first, -2.99 for the second.

Going from GGUUCUUCUCGAUCUAACAAAAAAGACAAAUCUGCCACAAAGCUUGAGAGCAACUUCGGAUGCAGAGGCGGCAGCCUUCGGUGGCGCGAUAGCGCCAACGUUCUCAACUAUGACACGCAAAACGCGUGCUCCGUUGAAUGGAGUUUAUCAUG to GGUUCUUCUCGAUCUAACAAAAAAGACAAAUCUGCCACAAAGCUUGAGAGCAACUUCGGAUGCAGAGGCGGCAGCCUUCGGUGUCGCGAUAGCGCCAACGUUCUCAACUAUGACACGCAAAACGCGUGCUCCGUUGAGUGGAGUUUAUCAUA, the “polymerase ribozyme fitness (log ratio)” value falls from -1.77 to at most -4.2.

GGAACUUCUCGAUCUAACAAAAAAGACAAAUCUGCCACAAAGCUUGAGAGCAUCUUCGGAUGCAGAGGCGGCAGCCUUCGGUGGCGCGAUAGCGCCAACGUUCUCAACUAUGACACGCAAAACGCGUGCUCCGUUGAAUGGAGUUUAUCAUG and GGUUCUUCUCGAUCUAACAAAAAAGACAAAUCUGCCACAAAGCUUGAGAGCAUCUUCGGAUGCAGAGGCGGCAGCCUUCGGCGGCGCGAUAGCGCCAACGAUCUCAACUAUGACACGCAAAACGCGUGCUCCGUUGAAUGGAGUUUAUCAUG are within 0.2 log units of each other in “polymerase ribozyme fitness (log ratio)” value: -0.014 for the first, -0.128 for the second.

Compared with GGUUCUAAUCGAUCUAACAAAAAAGACAAAUCUGCCACAAAGCUUGAGAGCAUCUUCGGAUGUAGAGGCGGCAGCCUUCGGUGGCGCGAGAGCGCCAACGUUCUCAACUAUGACACGCAAAACGCGUGCUCCGUUGAAUGGAGUUUAUCAUG, GGUUCUUCUCGAUCUAACAAAAAAGACAAAUCUGCCACAAAGCUUGAGAGCAUCUACGGAUGCAGAGGCGGCAGCCUUCGGUGGCGCGAUAGCGCCAACGUUCUCAACUAUGACACGCAAAACGCGUGCUCCGUUGAAUGGAGUUUAUCAUG is higher in “polymerase ribozyme fitness (log ratio)” value: at most -4.2 for the first, -1 for the second.

First: GGUUCUGCUCGAUCUAACAAAAAAGACAAAUCUGCCACAAAGCUUGAGAGCAUCUUCGGAUGCAGAGGCGGCAGCCUUCGGUGGCGAGAUGGCGCCAACGUUUUCAACUAUGACACGCAAAACGCGUGCUCCGUCGAAUGGAGUUUAUCAUG
Second: GGUUCUUCUCGAUCUAACAAAAAAGACAAAUCUGCCACAAAGCUUGAGAGCAUCUUCGGAUGCAGAGGCGGCAGCCUUCGGUGUCGCGAUAGCGCCAACGUUCUCAACUAUGACACGCAAAACGCGUGCUCCGUUGAAUGGAGUUUAUCAUG
The “polymerase ribozyme fitness (log ratio)” value of the first is lower: at most -4.2 for the first, -2.4 for the second.

First: GGUUCUUCUCGAUCUAACAAAAAAGACAAAUCUGCCACAAAGCUUGAGAGCAUCUUCGGAUGCAGAGGCGGCAGCCUUCGGUGACGCGAUAGCGCCAACGUUCUCAACUAUGACACGCAAAACGCGUGCUCCGUUGAAUGGAGUUUAUCAUG
Second: GGUUCUUCUCGAUCUAACAAAAAAGACAAACCUGCCACAAAGCUUGAGAGCAUCUUUGGAUGCAGAGGCGGCAGCCUUCGGUGGCACGAUAGCGCCAACGUUCUCAACUAUGACACGCAAAACGCGUGCUCCGUUGAAUGGAGUUUAUCAUG
The “polymerase ribozyme fitness (log ratio)” value of the first is higher: -1.14 for the first, -1.99 for the second.

First: GGUUCUUCUCGAUCUAACAAAAAAGACAAAUCUGCCACAAAGCUUGAGAGCAUCUUCGGAGGCAGAGGCGGCAGCCUUCGGUGGCGCGAUAGCGUCAACGUUCUCAACUAUGACACGCAAAACGCGUGCUCCGUUGAAUGGAGUUUAUCAUG
Second: GGUUCUCCUCGAUCUAACAAAAAAGACAAAUCUGCCACAAAGCUUGAGAGCAUCUACCGCUGCAGAGGCCGCAGCCUUCGGUGGCGCAAUAGCACCAACGUUCUCAACUAUGACUCGCAAAACGCGUGCUCCGUUGAAUGGAGUUUAUCAUG
The “polymerase ribozyme fitness (log ratio)” value of the first is higher: -1.39 for the first, at most -4.2 for the second.

First: GGUUCUACUCGAUCUAACAAAAAAGACAAAUCUGCCUCAAAGCUUGAGAGCAUCUUCGGAUGCAGAUGCGGCAGCCUUCGGUGGCGCGAUCGCGCCAACGUUCUCAACUAUGACACGCAAAACGCGUGCUCCGUUGAAUGGAAUUUAUCAUG
Second: GGUUCUUCUCGAUCUAACAAAAAAGACAAAUCUGCCACAAAGCUUGAGAGCAUCUUCGGAUGCAGAGGCGGCAGCCUUCGGUGACGCGAUAGCACCACCGUUCUCAACUAUGACACGCAAAACACGUGCUCCGUUGAAUGGAGUUUAUCAUG
The “polymerase ribozyme fitness (log ratio)” value of the first is lower: at most -4.2 for the first, -0.883 for the second.

Going from GGUUCUUCUCGAUCUAACAAAAAAGACAAAGCUGCCACAUAGCUUGAGAGCAACUUCGGAUGCAGAGGCGGCAGCCUUCGGUGGUGCGAUAGCGUCAACGUUCUCAACUAUGACACGCAAAACGCGUGCUCCGUUGAAUGGAGUUUAUCAUG to GGUUCUUCUCGAUCUAACAAAAAAGACAAAUCUGCCACAAAGCUUGAGAGCAUCUUCGGAUGCAGAGGCGGCAGCCUUCGGUAGCGUGAUAGCGCCAACGUUCUCAACUAGGACACGCAAAACGCGUGCUCCGUUGAAUGGAGUUUAUCAUG, the “polymerase ribozyme fitness (log ratio)” value falls from -3.06 to at most -4.2.

First: GGUUCAUCUCGAUCUAACAAAAAAGACAAAUCUGCCACGAAGCUUGAGAGCAUCUUCGGAUGCAGAGGCGGCAGCCUUCGGUGGCGCGAUAGCGCGAACGUUCUCAACUAUGACACGCAAAACUCGUGCUCCGUUGAAUGAAGUUUAUCAUG
Second: GGUUCUUCUCGAUCUAACAAAAAAGACAAAUCUGCCACAAAGCUUGAGAGCAUCUUCGGAUGCAGAGGCGGCAGCCUUCGGUGGCGCGAUAGCACCAACGUUCUCAACUAUGACACGCAAAACGCGUGCUCCGUUGAAUGGAGUUUAUCAUG
The “polymerase ribozyme fitness (log ratio)” value of the first is lower: -3.93 for the first, -1.21 for the second.

First: GGUUCUUCUCGAGCUAACAUAAAAGACAAAUCUGCCACAAAGCUUGAGAGCAUCUUCGGAUGCAGAGGCGGCACCCUUCGGUGGCGCGAUAGCGCCAACGUUCUCAACUAUGACACGCAAAACGCGUGCUCCGUUGAAUGGAGUUUAUCAUG
Second: GGUUCUUCUCGAUCUAACAAAAAAGACAAAUCUGCCACAAAGCUUGAGAGCAUCUUCGGAUGCAGAGGCGGCAGCCUUCGGUAGCGCGAUAGCGCCAACGUUCUCAACUAUGACACGGAAAACGCGUGCUCCGUUGAAUGGCGUUUAUCAUG
The “polymerase ribozyme fitness (log ratio)” value of the first is lower: at most -4.2 for the first, -3.66 for the second.
